Molecular target: PknF catalytic domain (cPknF) catalytic domain, 1-299 (UniProt P9WI75)
Conditions: reference: non-phosphorylated cPknF; sites T173,T175

## PknF catalytic domain (cPknF) catalytic domain, 1-299 (from UniProt P9WI75)
  other: volume fraction of dimers: stronger; reference 44

Source: article PMC8339232
